{
  "source": "patent US20260250425A1",
  "about": "(UNIVERSITY OF CHICAGO, published 2026)",
  "key": {"human C1q [1]": {"target": "T1, human C1q (human, UniProt P02745 23-245; P02746 28-253; P02747 29-245)", "T1 construct": "Purified human C1q (CompTech); also called hc1q; hC1q", "T1 sequence (P02745 23-245 limits assumed, chain 1 of 3)": "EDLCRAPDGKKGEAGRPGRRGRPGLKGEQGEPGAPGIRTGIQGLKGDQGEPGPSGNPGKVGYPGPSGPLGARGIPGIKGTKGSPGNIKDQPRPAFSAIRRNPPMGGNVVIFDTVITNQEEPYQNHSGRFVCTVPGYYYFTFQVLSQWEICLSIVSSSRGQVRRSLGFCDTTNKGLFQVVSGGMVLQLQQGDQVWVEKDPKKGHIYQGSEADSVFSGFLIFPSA", "T1 sequence (P02746 28-253 limits assumed, chain 2 of 3)": "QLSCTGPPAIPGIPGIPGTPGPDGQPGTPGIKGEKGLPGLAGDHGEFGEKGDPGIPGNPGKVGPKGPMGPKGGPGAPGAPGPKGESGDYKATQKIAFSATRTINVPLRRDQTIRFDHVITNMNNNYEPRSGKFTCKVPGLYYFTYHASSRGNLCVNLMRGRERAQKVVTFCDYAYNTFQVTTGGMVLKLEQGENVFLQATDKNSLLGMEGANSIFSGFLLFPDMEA", "T1 sequence (P02747 29-245 limits assumed, chain 3 of 3)": "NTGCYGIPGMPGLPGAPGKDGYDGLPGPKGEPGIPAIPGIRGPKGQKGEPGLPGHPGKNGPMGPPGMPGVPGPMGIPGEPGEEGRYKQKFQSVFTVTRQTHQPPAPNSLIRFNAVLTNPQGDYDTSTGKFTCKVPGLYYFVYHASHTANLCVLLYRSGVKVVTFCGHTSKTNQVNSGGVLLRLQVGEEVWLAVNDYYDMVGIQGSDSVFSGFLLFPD", "experiment": "ELISA, human C1q-coated plate"}, "human C1q [2]": {"target": "T1, human C1q", "experiment": "ELISA, human C1q-coated plate", "remark": "listed apart in the source"}, "human FcγRIA": {"target": "T2, human FcγRIA (human, UniProt P12314 16-288, limits assumed)", "T2 construct": "Recombinant His-tagged protein", "T2 sequence (P12314 16-288 limits assumed)": "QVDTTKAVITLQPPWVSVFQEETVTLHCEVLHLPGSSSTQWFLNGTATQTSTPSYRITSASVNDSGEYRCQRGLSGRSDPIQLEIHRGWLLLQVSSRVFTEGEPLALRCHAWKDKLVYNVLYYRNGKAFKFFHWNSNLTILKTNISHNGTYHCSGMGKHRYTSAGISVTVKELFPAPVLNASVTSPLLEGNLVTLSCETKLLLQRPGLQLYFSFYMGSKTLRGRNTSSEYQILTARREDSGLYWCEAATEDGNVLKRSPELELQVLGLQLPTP", "experiment": "ELISA, His-tagged FcγR captured by anti-His antibody"}, "human FcγRIIA (R131)": {"target": "T3, human FcγRIIA (R131) (human, UniProt P12318 34-218, limits assumed)", "T3 construct": "Recombinant His-tagged protein", "T3 sequence (looked up)": "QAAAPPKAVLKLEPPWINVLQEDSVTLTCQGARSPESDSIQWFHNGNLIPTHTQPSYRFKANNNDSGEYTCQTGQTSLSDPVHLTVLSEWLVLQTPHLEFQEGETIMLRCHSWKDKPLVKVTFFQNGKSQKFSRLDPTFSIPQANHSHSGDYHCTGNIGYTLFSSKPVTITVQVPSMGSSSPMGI", "experiment": "ELISA, His-tagged FcγR captured by anti-His antibody"}, "human FcγRIIA (H131)": {"target": "T4, human FcγRIIA (H131) (human, UniProt P12318 34-218, limits assumed)", "T4 construct": "Recombinant His-tagged protein", "T4 sequence (looked up)": "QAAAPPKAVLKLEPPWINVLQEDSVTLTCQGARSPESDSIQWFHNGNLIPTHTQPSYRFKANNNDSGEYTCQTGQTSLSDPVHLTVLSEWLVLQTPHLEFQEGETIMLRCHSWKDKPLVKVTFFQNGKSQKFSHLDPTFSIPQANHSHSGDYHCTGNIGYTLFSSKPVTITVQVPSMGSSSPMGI", "experiment": "ELISA, His-tagged FcγR captured by anti-His antibody"}, "human FcγRIIB": {"target": "T5, human FcγRIIB (human, UniProt P31994 43-217, limits assumed)", "T5 construct": "Recombinant His-tagged protein; also called FcγRIIB (human)", "T5 sequence (looked up)": "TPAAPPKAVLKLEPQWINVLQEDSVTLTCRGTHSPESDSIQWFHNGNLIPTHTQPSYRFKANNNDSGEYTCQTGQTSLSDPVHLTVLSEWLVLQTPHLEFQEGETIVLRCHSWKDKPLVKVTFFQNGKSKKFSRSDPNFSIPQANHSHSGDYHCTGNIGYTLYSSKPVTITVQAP", "experiment": "ELISA, His-tagged FcγR captured by anti-His antibody"}, "human FcγRIIIA (V158)": {"target": "T6, human FcγRIIIA (V158) (human, UniProt P08637 17-208)", "T6 construct": "Recombinant His-tagged protein", "T6 sequence (P08637 17-208 F176V limits assumed)": "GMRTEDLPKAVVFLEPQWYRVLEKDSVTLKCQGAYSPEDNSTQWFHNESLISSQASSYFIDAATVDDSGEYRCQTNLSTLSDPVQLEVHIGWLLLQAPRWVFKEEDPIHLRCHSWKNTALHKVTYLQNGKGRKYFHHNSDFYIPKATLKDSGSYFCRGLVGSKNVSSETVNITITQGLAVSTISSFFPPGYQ", "experiment": "ELISA, His-tagged FcγR captured by anti-His antibody"}, "human FcγRIIIA (F158)": {"target": "T7, human FcγRIIIA (F158) (human, UniProt P08637 17-208)", "T7 construct": "Recombinant His-tagged protein", "T7 sequence (P08637 17-208 limits assumed)": "as the sequence (P08637 17-208 F176V limits assumed) above, with V160F counted along it", "experiment": "ELISA, His-tagged FcγR captured by anti-His antibody"}, "mouse FcγRI": {"target": "T8, mouse FcγRI (mouse, UniProt P26151 25-297)", "T8 construct": "Recombinant His-tagged protein", "T8 sequence (looked up)": "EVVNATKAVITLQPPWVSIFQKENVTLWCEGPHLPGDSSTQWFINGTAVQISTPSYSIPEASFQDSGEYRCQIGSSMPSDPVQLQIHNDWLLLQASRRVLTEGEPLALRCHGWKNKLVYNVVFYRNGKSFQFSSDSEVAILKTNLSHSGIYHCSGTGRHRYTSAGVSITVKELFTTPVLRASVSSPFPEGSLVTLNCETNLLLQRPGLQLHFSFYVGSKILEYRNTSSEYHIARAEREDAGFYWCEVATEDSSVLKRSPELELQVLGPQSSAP", "experiment": "ELISA, His-tagged FcγR captured by anti-His antibody"}, "mouse FcγRIIB": {"target": "T9, mouse FcγRIIB (mouse, UniProt P08101 30-210, limits assumed)", "T9 construct": "Recombinant His-tagged protein", "T9 sequence (looked up)": "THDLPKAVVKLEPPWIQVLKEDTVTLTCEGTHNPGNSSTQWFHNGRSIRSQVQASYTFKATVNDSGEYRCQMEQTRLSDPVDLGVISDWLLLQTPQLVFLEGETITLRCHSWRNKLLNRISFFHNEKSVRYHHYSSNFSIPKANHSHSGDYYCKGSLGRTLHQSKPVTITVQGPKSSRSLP", "experiment": "ELISA, His-tagged FcγR captured by anti-His antibody"}, "mouse FcγRIII": {"target": "T10, mouse FcγRIII (mouse, UniProt P08508 31-215)", "T10 construct": "Recombinant His-tagged protein", "T10 sequence (looked up)": "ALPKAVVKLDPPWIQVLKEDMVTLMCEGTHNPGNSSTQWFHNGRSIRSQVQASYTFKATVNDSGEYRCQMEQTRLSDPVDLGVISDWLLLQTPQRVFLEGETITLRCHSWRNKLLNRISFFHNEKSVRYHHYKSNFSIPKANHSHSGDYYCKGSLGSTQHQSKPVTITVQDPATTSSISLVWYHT", "experiment": "ELISA, His-tagged FcγR captured by anti-His antibody"}, "mouse FcγRIV": {"target": "T11, mouse FcγRIV (mouse, UniProt A0A0B4J1G0 21-203)", "T11 construct": "Recombinant His-tagged protein", "T11 sequence": "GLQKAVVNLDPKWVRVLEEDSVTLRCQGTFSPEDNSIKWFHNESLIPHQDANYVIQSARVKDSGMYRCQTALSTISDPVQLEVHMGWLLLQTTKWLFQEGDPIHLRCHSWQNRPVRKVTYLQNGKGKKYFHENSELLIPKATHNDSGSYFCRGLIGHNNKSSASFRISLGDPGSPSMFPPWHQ", "experiment": "ELISA, His-tagged FcγR captured by anti-His antibody"}, "mouse C1q [3]": {"target": "T12, mouse C1q (mouse, UniProt P98086 23-245; P14106 26-253; Q02105 30-246)", "T12 construct": "Plates were coated with BALB/c mouse serum as the source of mouse C1q; also called mc1q", "T12 sequence (P98086 23-245 limits assumed, chain 1 of 3)": "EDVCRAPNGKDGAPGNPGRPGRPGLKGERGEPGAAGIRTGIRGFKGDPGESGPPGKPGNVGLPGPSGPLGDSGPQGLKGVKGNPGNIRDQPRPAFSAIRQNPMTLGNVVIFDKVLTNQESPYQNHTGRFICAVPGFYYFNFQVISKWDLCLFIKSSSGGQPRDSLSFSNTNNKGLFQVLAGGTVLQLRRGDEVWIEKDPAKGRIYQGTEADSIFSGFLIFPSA", "T12 sequence (P14106 26-253 limits assumed, chain 2 of 3)": "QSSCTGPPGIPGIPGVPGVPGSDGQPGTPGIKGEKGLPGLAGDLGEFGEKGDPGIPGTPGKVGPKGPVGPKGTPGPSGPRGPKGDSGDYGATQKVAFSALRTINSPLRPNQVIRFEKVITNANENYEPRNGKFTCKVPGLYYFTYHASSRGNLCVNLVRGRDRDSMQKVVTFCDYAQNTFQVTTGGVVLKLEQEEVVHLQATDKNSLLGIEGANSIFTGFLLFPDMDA", "T12 sequence (Q02105 30-246 limits assumed, chain 3 of 3)": "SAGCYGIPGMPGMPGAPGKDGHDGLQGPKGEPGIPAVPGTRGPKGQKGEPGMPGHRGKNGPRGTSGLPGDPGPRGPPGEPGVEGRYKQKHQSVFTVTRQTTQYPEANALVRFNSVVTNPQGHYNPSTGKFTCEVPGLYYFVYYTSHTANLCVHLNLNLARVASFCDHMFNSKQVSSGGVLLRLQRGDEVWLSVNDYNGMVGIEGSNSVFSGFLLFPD", "experiment": "ELISA, plate coated with BALB/c mouse serum (mouse C1q)"}, "mouse C1q [4]": {"target": "T12, mouse C1q", "experiment": "ELISA, plate coated with BALB/c mouse serum (mouse C1q)", "remark": "listed apart in the source"}},
  "note": "Like-named read-outs stand apart in the source and are kept apart here.",
  "data": [
    {"binder": "3F6-hIgG1HEK (antibody, Asn297 N-glycans as made by HEK-293F cells (more G1F, G2F and sialic acid than the CHO product), also called 3F6-hIgG1HEK WT; 3F6-IgG1) heavy: not shown light: DIVLTQSPDSLAVSLGERATINCRASESVEYSGASLMQWYQHKPGQPPKLLIYAASNRESGVPDRFSGSGSGTDFTLTISPVQAEDVAMYFCQQSRKVPSTFGGGTKLEIKRTVAAPSVFIFPPSDEQLKSGTASVVCLLNNFYPREAKVQWKVDNALQSGNSQESVTEQDSKDSTYSLSSTLTLSKADYEKHKVYACEVTHQGLSSPVTKSFNRGEC", "values": [
      {"measurement": "Ka", "setting": "human C1q [1]", "value": "1.87e+07", "unit": "M⁻¹"},
      {"measurement": "Ka", "setting": "human C1q [2]", "value": "1.87e+07", "unit": "M⁻¹"},
      {"measurement": "Ka", "setting": "human FcγRIA", "value": "7.88e+08", "unit": "M⁻¹"},
      {"measurement": "Ka", "setting": "human FcγRIIA (R131)", "value": "1.53e+06", "unit": "M⁻¹"},
      {"measurement": "Ka", "setting": "human FcγRIIA (H131)", "value": "1.13e+06", "unit": "M⁻¹"},
      {"measurement": "Ka", "setting": "human FcγRIIB", "value": 925000, "unit": "M⁻¹"},
      {"measurement": "Ka", "setting": "human FcγRIIIA (V158)", "value": "2.31e+07", "unit": "M⁻¹"},
      {"measurement": "Ka", "setting": "human FcγRIIIA (F158)", "value": "1.97e+06", "unit": "M⁻¹"},
      {"measurement": "Ka", "setting": "mouse FcγRI", "value": "1.84e+08", "unit": "M⁻¹"},
      {"measurement": "Ka", "setting": "mouse FcγRIIB", "value": "1.61e+06", "unit": "M⁻¹"},
      {"measurement": "Ka", "setting": "mouse FcγRIII", "value": "1.69e+06", "unit": "M⁻¹"},
      {"measurement": "Ka", "setting": "mouse FcγRIV", "value": "1.35e+08", "unit": "M⁻¹"},
      {"measurement": "Ka", "setting": "mouse C1q [3]", "value": "6.08e+07", "unit": "M⁻¹"},
      {"measurement": "Ka", "setting": "mouse C1q [4]", "value": "6.08e+07", "unit": "M⁻¹"}
    ]},
    {"binder": "3F6-hIgG1HEK-deGal (antibody, Asn297 N-glycans de-galactosylated with β1-4-galactosidase, See m5) heavy: not shown light: DIVLTQSPDSLAVSLGERATINCRASESVEYSGASLMQWYQHKPGQPPKLLIYAASNRESGVPDRFSGSGSGTDFTLTISPVQAEDVAMYFCQQSRKVPSTFGGGTKLEIKRTVAAPSVFIFPPSDEQLKSGTASVVCLLNNFYPREAKVQWKVDNALQSGNSQESVTEQDSKDSTYSLSSTLTLSKADYEKHKVYACEVTHQGLSSPVTKSFNRGEC", "values": [
      {"measurement": "Ka", "setting": "human C1q [1]", "value": "4e+06", "unit": "M⁻¹"}
    ]},
    {"binder": "3F6-hIgG1HEK-deSia (antibody, Asn297 N-glycans de-sialylated with neuraminidase, See m5) heavy: not shown light: DIVLTQSPDSLAVSLGERATINCRASESVEYSGASLMQWYQHKPGQPPKLLIYAASNRESGVPDRFSGSGSGTDFTLTISPVQAEDVAMYFCQQSRKVPSTFGGGTKLEIKRTVAAPSVFIFPPSDEQLKSGTASVVCLLNNFYPREAKVQWKVDNALQSGNSQESVTEQDSKDSTYSLSSTLTLSKADYEKHKVYACEVTHQGLSSPVTKSFNRGEC", "values": [
      {"measurement": "Ka", "setting": "human C1q [1]", "value": "3.37e+07", "unit": "M⁻¹"}
    ]},
    {"binder": "3F6-hIgG1HEK-G0F (antibody, Asn297 N-glycan remodelled chemoenzymatically to homogeneous G0F, See m5; also called 3F6-hIgGHEK-G0F) heavy: not shown light: DIVLTQSPDSLAVSLGERATINCRASESVEYSGASLMQWYQHKPGQPPKLLIYAASNRESGVPDRFSGSGSGTDFTLTISPVQAEDVAMYFCQQSRKVPSTFGGGTKLEIKRTVAAPSVFIFPPSDEQLKSGTASVVCLLNNFYPREAKVQWKVDNALQSGNSQESVTEQDSKDSTYSLSSTLTLSKADYEKHKVYACEVTHQGLSSPVTKSFNRGEC", "values": [
      {"measurement": "Ka", "setting": "human C1q [1]", "value": "6.94e+06", "unit": "M⁻¹"}
    ]},
    {"binder": "3F6-hIgG1HEK-G1F (antibody, Asn297 N-glycan remodelled chemoenzymatically to homogeneous G1F, See m5; also called 3F6-hIgGHEK-G1F) heavy: not shown light: DIVLTQSPDSLAVSLGERATINCRASESVEYSGASLMQWYQHKPGQPPKLLIYAASNRESGVPDRFSGSGSGTDFTLTISPVQAEDVAMYFCQQSRKVPSTFGGGTKLEIKRTVAAPSVFIFPPSDEQLKSGTASVVCLLNNFYPREAKVQWKVDNALQSGNSQESVTEQDSKDSTYSLSSTLTLSKADYEKHKVYACEVTHQGLSSPVTKSFNRGEC", "values": [
      {"measurement": "Ka", "setting": "human C1q [1]", "value": "3.83e+07", "unit": "M⁻¹"}
    ]}
  ]
}
